Data published in PMC6780499, “Characterization, Recombinant Production and Structure-Function Analysis of NvCI, A Picomolar Metallocarboxypeptidase Inhibitor from the Marine Snail Nerita versicolor” (Marine Drugs, 2019).
No end group written: not given here.

Experiments:
hCPD = target: T1, hCPD (Homo sapiens, UniProt O75976); experiment: Ki determination, tight-binding inhibition of metallocarboxypeptidase; assay type: biochemical; details: NI: No inhibitory activity detected for the [I]0 range from 1 nM to 1 mM
T1 sequence (O75976 32-1380): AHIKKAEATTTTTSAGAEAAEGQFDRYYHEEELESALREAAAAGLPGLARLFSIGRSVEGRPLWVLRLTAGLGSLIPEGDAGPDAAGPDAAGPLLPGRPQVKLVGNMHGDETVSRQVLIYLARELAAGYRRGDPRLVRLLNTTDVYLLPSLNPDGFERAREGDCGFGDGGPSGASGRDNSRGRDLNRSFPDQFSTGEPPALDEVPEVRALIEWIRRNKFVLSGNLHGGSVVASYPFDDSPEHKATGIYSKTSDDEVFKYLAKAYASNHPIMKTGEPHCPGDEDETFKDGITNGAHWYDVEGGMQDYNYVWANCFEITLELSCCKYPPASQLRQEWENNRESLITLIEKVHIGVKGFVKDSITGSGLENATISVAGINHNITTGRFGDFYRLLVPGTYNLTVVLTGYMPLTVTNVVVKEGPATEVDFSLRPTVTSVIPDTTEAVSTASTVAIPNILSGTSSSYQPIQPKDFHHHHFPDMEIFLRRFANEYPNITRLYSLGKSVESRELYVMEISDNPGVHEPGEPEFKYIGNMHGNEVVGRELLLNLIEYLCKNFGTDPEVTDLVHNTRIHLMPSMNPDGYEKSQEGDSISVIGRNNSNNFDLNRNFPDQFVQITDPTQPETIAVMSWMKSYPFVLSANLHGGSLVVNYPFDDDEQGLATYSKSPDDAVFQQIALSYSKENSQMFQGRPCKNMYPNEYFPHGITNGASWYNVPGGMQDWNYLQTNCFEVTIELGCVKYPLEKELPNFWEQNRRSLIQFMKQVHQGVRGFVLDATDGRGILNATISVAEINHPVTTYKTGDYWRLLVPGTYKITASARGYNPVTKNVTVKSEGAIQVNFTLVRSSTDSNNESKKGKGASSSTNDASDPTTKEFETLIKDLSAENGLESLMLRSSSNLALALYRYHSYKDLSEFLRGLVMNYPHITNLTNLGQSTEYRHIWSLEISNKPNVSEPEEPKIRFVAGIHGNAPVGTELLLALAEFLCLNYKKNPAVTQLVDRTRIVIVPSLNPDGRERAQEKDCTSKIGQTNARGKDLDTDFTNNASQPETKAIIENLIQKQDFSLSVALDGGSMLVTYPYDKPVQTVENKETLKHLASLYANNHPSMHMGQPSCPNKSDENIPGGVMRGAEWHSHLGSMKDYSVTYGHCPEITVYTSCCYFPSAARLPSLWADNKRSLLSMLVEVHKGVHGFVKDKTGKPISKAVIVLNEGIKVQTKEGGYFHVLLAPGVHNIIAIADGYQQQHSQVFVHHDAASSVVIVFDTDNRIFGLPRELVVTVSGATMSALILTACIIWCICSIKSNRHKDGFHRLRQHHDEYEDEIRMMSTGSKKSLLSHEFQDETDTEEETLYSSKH
Method: (§1) Inhibitory activities against CPA- and CPB-type forms (bovine and human variants of CPA1, CPA2, CPA4, CPB1, and TAFI) were assayed for all extracts, subject to the experimental conditions that enzyme (E), substrate (S) and inhibitor (I) concentrations as well as the [I]/[E] ratio and preincubation time followed the requirements for tight-binding inhibitor assays. Similar approaches were followed to measure the activities of proteases of different catalytic types, like pepsin, papain, trypsin and subtilisin [45, 46, 47, 48]. All assays were performed in triplicate at 25 °C in a multiplexed manner. For 96-well assays an iEMS spectrophotometer reader/dispenser FM (Labsystems, Finland) was used with a final reaction volume of 250 μL. For cuvette assays, a Cary 400 Bio spectrophotometer (Varian Inc., Palo Alto, CA, USA) spectrophotometer was used with a final reaction volume of 1 ml. The reactions were followed at 5 s intervals for 5 min and recorded as initial velocities. In the protease inhibition assays, mixtures of activity buffer, biological sample and enzyme were preincubated at 25 °C for 10min, before substrate addition. The assay conditions were as follows: for CPA-like enzymes, 7.0nM CPA, 0.1mM AAFP substrate in 20mM Tris-HCl pH 7.5, 500mMNaCl, 1% v/v dimethyl sulfoxide (DMSO), 0.05% w/v BRIJ-35 was used. For CPB-like enzymes, CPB 3.0nM CPB, 0.1mM AAFA substrate and activity buffer of 20 mM Tris-HCl pH [50].
(§2) The Ki values of natural and recombinant NvCI against bCPA1, hCPA1, hCPA2, rat CPA3, hCPA4, hCPB1, bTAFI, hTAFI, hCPD and hCPZ were determined by measuring the enzymatic residual activity (Vi/V0 = a) at different inhibitor concentrations and using a fixed enzyme and substrate concentrations as described above, where vi and v0 are the fraction of enzymatic activity in the presence and absence of inhibitor, respectively, in terms of initial velocities. The determination of Ki values was carried out on equilibrium conditions ([E0]/Ki ≤ 10), using a previously determined preincubation time of 15 min, required to establish enzyme-inhibitor equilibrium. Working temperature was 37 °C. The best estimates of Ki values were obtained by fitting the experimental data to the equation for tight-binding inhibitors by non-linear regression using the GraphPad Prisma 5 software (GraphPad Software, Inc., San Diego, CA, USA) at p < 0.05. The real Ki values against each of these A/B-type MCPs were calculated according to the equation described by Morrison and Copeland [19, 20].

pCPB = target: T2, pCPB (Sus scrofa, UniProt P09955); experiment: as above; assay type: biochemical; details: tight-binding equation fit, equilibrium conditions; substrate AAFA 0.1mM; preincubation 15 min; 37 °C; means (n = 3) ± SD
T2 sequence (P09955 111-416): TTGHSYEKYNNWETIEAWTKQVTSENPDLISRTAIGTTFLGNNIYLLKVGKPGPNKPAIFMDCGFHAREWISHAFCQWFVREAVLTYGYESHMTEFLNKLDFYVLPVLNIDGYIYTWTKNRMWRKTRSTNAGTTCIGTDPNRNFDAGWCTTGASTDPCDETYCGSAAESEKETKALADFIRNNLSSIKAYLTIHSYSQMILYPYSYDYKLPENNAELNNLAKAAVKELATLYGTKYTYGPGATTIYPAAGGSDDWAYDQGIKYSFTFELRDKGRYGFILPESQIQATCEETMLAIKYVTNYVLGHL
Method: as §1, §2

Ki (hCPD): > 1000 µM
Ki (pCPB): 0.00065 ± 1.22e-05 µM
Substance: NvCI: 53-residue, three-disulphide proteinaceous metallocarboxypeptidase inhibitor from the marine snail Nerita versicolor; major isoform; UniProt P86912 (FHVPDDRPCINPGRCPLVPDATCTFVCKAADNDFGYECQHVWTFEGQRVGCYA; disulfide (positions not given here); also: three disulphides, pairing not given here; UniProt P86912 1-53, looked up)
